Where a chain is given by its changes, count along the chain named. One block for each binder: values may come before it.
Tests used:
biotin-labeled mouse ADM [1] = biological target: T1, biotin-labeled mouse ADM (mouse, not fully specified; biotin label (named mouse ADM-C-biotin in Example 1.4; position of the biotin not stated for the other lots)); experiment: BLI (Octet RED96e), biotinylated antigen on SA sensor, antibody 100 nM, 1:1 fit
T1 construct: Synthetic peptide; also called mouse ADM-C-biotin; mADM-Biotin
T1 peptide: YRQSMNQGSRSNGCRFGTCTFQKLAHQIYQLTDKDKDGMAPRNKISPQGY
Description: (§1) The affinity of antibodies 2004hz00, 2004hz97, and 2004hz99 for biotin-labeled human and mouse ADM (human ADM Cat. No. 894757, mouse ADM Cat. No. 894758, synthesized by GLBiochem) was determined by adopting Octet RED96e (Fortebio). The antigens and the antibodies were all diluted with 1× PBST (1× PBS: Sangon, B548117-0500; 0.02% Tween 20: sigma, P1379), the concentration of the antibody used was 100 nM, and the concentration of the antigen used was 2 μg/mL. The candidate antibody sample was added to a 96-well plate (Greiner bio-one, 655209) at 200 μL/well, the software parameters were set, the temperature was 30° C., and the standard kinetic signal was collected at a frequency of 5.0 Hz; and an SA sensor (Fortebio, Cat. No. 18-5020) was pre-wetted with 1× PBST for 10 min and then tested on a machine.
(§2) The equilibrium dissociation constants (KD) of the antibodies were calculated by measuring the association rates (Kon) and the dissociation rates (Koff) of the antigen-antibody in a 1:1 binding manner by adopting the Data Analysis 12.0 software from Fortebio.

biotin-labeled human ADM [2] = biological target: T2, biotin-labeled human ADM (human, not fully specified; biotin label (named human ADM-C-biotin in Example 1.4; position of the biotin not stated for the other lots)); experiment: as above
T2 construct: Synthetic peptide; also called human ADM-C-biotin; hADM-Biotin
T2 peptide: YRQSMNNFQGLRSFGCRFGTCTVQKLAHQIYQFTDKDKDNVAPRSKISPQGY
Description: as §1, §2

biotin-labeled mouse ADM [3] = biological target: T1, biotin-labeled mouse ADM; experiment: BLI (Octet RED96e), as in Example 3
Description: as §1, §2
(§3) Similar to Example 3, the affinity of the affinity-matured antibodies Ab2004.Am31 -Ab2004.Am40 and the parent antibody Ab2004.Am01 for human and mouse ADM was further determined, respectively, and the results are shown in Table 10. It can be seen from Table 10 […].

biotin-labeled human ADM [4] = biological target: T2, biotin-labeled human ADM; experiment: BLI (Octet RED96e), as in Example 3
Description: as §1, §2, §3

biotin-labeled mouse ADM [5] = biological target: T1, biotin-labeled mouse ADM; experiment: flow staining of yeast-displayed Fab at graded antigen concentrations
From the text: (§4) For the first round of screening products of JYYDL227, 46 monoclones were picked for sequencing, and finally, a yeast monoclonal colony with a unique sequence was obtained for EC₅₀ identification by flow staining.
(§5) According to the staining results of the clones (as shown in Table 6) in combination with the similarity of the sequences of the clones, the monoclones expressing antibodies Ab2004.Am31 (with amino acid sequences of variable regions set forth in SEQ ID NOs: 31 and 36), Ab2004.Am32 (with amino acid sequences of variable regions set forth in SEQ ID NOs: 31 and 37), Ab2004.Am33 (with amino acid sequences of variable regions set forth in SEQ ID NOs: 32 and 36), Ab2004.Am34 (with amino acid sequences of variable regions set forth in SEQ ID NOs: 33 and 38), Ab2004.Am35 (with amino acid sequences of variable regions set forth in SEQ ID NOs: 31 and 38), Ab2004.Am36 (with amino acid sequences of variable regions set forth in SEQ ID NOs: 31 and 39), Ab2004.Am37 (with amino acid sequences of variable regions set forth in SEQ ID NOs: 34 and 38), Ab2004.Am38 (with amino acid sequences of variable regions set forth in SEQ ID NOs: 34 and 40), Ab2004.Am39 (with amino acid sequences of variable regions set forth in SEQ ID NOs: 33 and 41), and Ab2004.Am40 (with amino acid sequences of variable regions set forth in SEQ ID NOs: 31 and 42) were finally selected. The amino acid sequences of the Chothia-numbered CDRs of the candidate antibodies are shown in Table 7, and the amino acid sequences of the light and heavy chain variable regions of the candidate antibodies are shown in Table 8.

biotin-labeled human ADM [6] = biological target: T2, biotin-labeled human ADM; experiment: as above
From the text: as §4, §5

B1: humanized antibody 2004hz97 (antibody, human IgG1, kappa)
heavy: not shown
light: DVVMTQSPLSLPVTLGQPASISCRSSQSIIDSDGNTYLEWYQQRPGQSPRLLIYKVSNRFSGVPDRFSGSGSGTDFTLKISRVEAEDFGVYYCFQGSHFPYTFGQGTKLEIKRTVAAPSVFIFPPSDEQLKSGTASVVCLLNNFYPREAKVQWKVDNALQSGNSQESVTEQDSKDSTYSLSSTLTLSKADYEKHKVYACEVTHQGLSSPVTKSFNRGEC
notes: Human IgG1/kappa
Kd (biotin-labeled mouse ADM [1]): 0.489 nM
Response value (biotin-labeled mouse ADM [1]): 3
koff (biotin-labeled mouse ADM [1]): 0.000231 s⁻¹
kon (biotin-labeled mouse ADM [1]): 472000 M⁻¹ s⁻¹
Kd (biotin-labeled human ADM [2]): 0.546 nM
Response value (biotin-labeled human ADM [2]): 2.39
koff (biotin-labeled human ADM [2]): 0.000252 s⁻¹
kon (biotin-labeled human ADM [2]): 461000 M⁻¹ s⁻¹

B5: Ab2004.Am37 (IgG1 antibody) (antibody, V domains shown)
VH: QVQLVQSGAEVKKPGASVKVSCKASGYTFTSYGISWVRQAPGQGLEWMGWISPYTGKTNYAQKLQGRVTMTRDTSTSTAYMELRSLRSDDTAVYYCAREGRWGGSFNIWGQGTMVTVSS
VL: DIQMTQSPSSLSASVGDRVTITCRASQGISSYLAWYQQKPGKAPKLLIYDVSILDAGVPSRFSGSGSGTDFTFTISSLQPEDIATYYCQQYDNLPLTFGGGTKVEIKR
notes: Expressed in CHO cells, human IgG1/kappa
Kd (biotin-labeled mouse ADM [3]): 0.469 nM
Response value (biotin-labeled mouse ADM [3]): 2.85
koff (biotin-labeled mouse ADM [3]): 0.00033 s⁻¹
kon (biotin-labeled mouse ADM [3]): 703000 M⁻¹ s⁻¹
Kd (biotin-labeled human ADM [4]): 0.256 nM
Response value (biotin-labeled human ADM [4]): 2.88
koff (biotin-labeled human ADM [4]): 0.00015 s⁻¹
kon (biotin-labeled human ADM [4]): 587000 M⁻¹ s⁻¹

B6: Ab2004.Am01 (Fab displayed on yeast) (Fab, V domains shown)
VH: B5 VH with P53A, T55Q, K57N
VL: DIQMTQSPSSLSASVGDRVTITCRASQGISSYLAWYQQKPGKAPKLLIYDASNLETGVPSRFSGSGSGTDFTFTISSLQPEDIATYYCQQYDNLPLTFGGGTKVEIK
EC50 (biotin-labeled mouse ADM [5]): 88.2 nM
EC50 (biotin-labeled human ADM [6]): 4 nM

B7: Ab2004.Am37 (Fab displayed on yeast) (Fab, V domains shown)
VH: B5 VH
VL: B6 VL with A51V, N53I, E55D, T56A
notes: Yeast monoclonal colony of library JYYDL227 (Fab display)
EC50 (biotin-labeled mouse ADM [5]): 6.74 nM
EC50 (biotin-labeled human ADM [6]): 0.88 nM

B8: Ab2004.Am36 (Fab displayed on yeast) (Fab, V domains shown)
VH: B5 VH with S31Q, S35A, P53A, T55Q, K57N
VL: B6 VL with L54V, E55D
notes: as for B7
EC50 (biotin-labeled mouse ADM [5]): 2.67 nM
EC50 (biotin-labeled human ADM [6]): 1.73 nM

B9: Ab2004.Am38 (IgG1 antibody) (antibody, V domains shown)
VH: B5 VH
VL: B5 VL with V51T, I53D, A56T
notes: as for B5
Kd (biotin-labeled mouse ADM [3]): 0.467 nM
Response value (biotin-labeled mouse ADM [3]): 2.88
koff (biotin-labeled mouse ADM [3]): 0.000342 s⁻¹
kon (biotin-labeled mouse ADM [3]): 733000 M⁻¹ s⁻¹
Kd (biotin-labeled human ADM [4]): 0.255 nM
Response value (biotin-labeled human ADM [4]): 2.83
koff (biotin-labeled human ADM [4]): 0.00016 s⁻¹
kon (biotin-labeled human ADM [4]): 626000 M⁻¹ s⁻¹

Next, values leading:

Kd (biotin-labeled mouse ADM [1]): 0.418 nM
Response value (biotin-labeled mouse ADM [1]): 3.06
koff (biotin-labeled mouse ADM [1]): 0.000194 s⁻¹
kon (biotin-labeled mouse ADM [1]): 465000 M⁻¹ s⁻¹
Kd (biotin-labeled human ADM [2]): 0.429 nM
Response value (biotin-labeled human ADM [2]): 2.58
koff (biotin-labeled human ADM [2]): 0.000201 s⁻¹
kon (biotin-labeled human ADM [2]): 468000 M⁻¹ s⁻¹
B2: humanized antibody 2004hz99 (antibody, human IgG1, kappa)
heavy: not shown
light: B1 light with V3L, G104A
notes: Human IgG1/kappa

Kd (biotin-labeled mouse ADM [3]): 0.497 nM
Response value (biotin-labeled mouse ADM [3]): 2.75
koff (biotin-labeled mouse ADM [3]): 0.000297 s⁻¹
kon (biotin-labeled mouse ADM [3]): 597000 M⁻¹ s⁻¹
Kd (biotin-labeled human ADM [4]): 0.567 nM
Response value (biotin-labeled human ADM [4]): 2.07
koff (biotin-labeled human ADM [4]): 0.000382 s⁻¹
kon (biotin-labeled human ADM [4]): 673000 M⁻¹ s⁻¹
B3: Enibarcimab (antibody, V domains shown)
VH: QVQLVQSGAEVKKPGSSVKVSCKASGYTFSRYWIEWVRQAPGQGLEWIGEILPGSGSTNYNQKFQGRVTITADTSTSTAYMELSSLRSEDTAVYYCTEGYEYDGFDYWGQGTTVTVSS
VL: DVVLTQSPLSLPVTLGQPASISCRSSQSIVYSNGNTYLEWYLQRPGQSPRLLIYRVSNRFSGVPDRFSGSGSGTDFTLKISRVEAEDVGVYYCFQGSHIPYTFGGGTKLEIKR

Kd (biotin-labeled mouse ADM [1]): 0.454 nM
Response value (biotin-labeled mouse ADM [1]): 3.19
koff (biotin-labeled mouse ADM [1]): 0.000196 s⁻¹
kon (biotin-labeled mouse ADM [1]): 432000 M⁻¹ s⁻¹
Kd (biotin-labeled human ADM [2]): 0.457 nM
Response value (biotin-labeled human ADM [2]): 2.69
koff (biotin-labeled human ADM [2]): 0.000201 s⁻¹
kon (biotin-labeled human ADM [2]): 441000 M⁻¹ s⁻¹
B4: chimeric antibody 2004hz00 (antibody, human IgG1, kappa)
heavy: not shown
light: DVLMTQTPFSLPVSLGDQASISCRSSQSIIDSDGNTYLEWYLQKPGQSPKLLIYKVSNRFSGVPDRFSGSGSGTDFTLRISRVEAEDLGVYYCFQGSHFPYTFAGGTKLELKRTVAAPSVFIFPPSDEQLKSGTASVVCLLNNFYPREAKVQWKVDNALQSGNSQESVTEQDSKDSTYSLSSTLTLSKADYEKHKVYACEVTHQGLSSPVTKSFNRGEC
notes: Human IgG1/kappa
